The target of assay [1] is SARS-CoV-2 spike trimer (aa 1-1208, furin site mutated, K986P/V987P) fused to human resistin (aa 23-108), FLAG-(His)6 (SARS-CoV-2 | human) (UniProt P0DTC2). Description: SEC-MALS; SEC-UPLC in PBS + 0.02% Tween-20 on Acquity BEH450 column coupled to MALS detector and refractometer; data not shown. On the technique in general: Size exclusion chromatography separates by hydrodynamic size, large species first.

Assay [2] concerns the target soluble trimeric SARS-CoV-2 spike protein ectodomain (residues 1-1211) with phage foldon trimerization motif, 6xHis tag and AviTag (SARS-CoV-2 | not stated) (UniProt P0DTC2). Description: negative stain electron microscopy.

We go through two substances from PMC8050884.

As for “SARS-CoV-2 spike trimer (aa 1-1208, furin site mutated, K986P/V987P) fused to human resistin (aa 23-108), FLAG-(His)6 (from UniProt P0DTC2;Q9HD89)”, the stoichiometry N in assay [1] turned out to be 3. Substance “soluble trimeric SARS-CoV-2 spike protein ectodomain (residues 1-1211) with phage foldon trimerization motif, 6xHis tag and AviTag (from UniProt P0DTC2 14-1211)” returned a stoichiometry N in assay [2] of 3.

What is called stoichiometry N is a count of units in the complex or per binding partner.
